Our source for the oligomerisation and degradation_or_half_life values is publication PMC7884448.

Data set [1] is described as follows: SDD-AGE of MAVS aggregates, HEK293. Conditions: glycan lost; control: wild type.
Data set [2] is described as follows: cycloheximide chase, HEK293 and A549. Conditions: glycan gained; control: without Thiamet-G.

B1: mitochondrial antiviral signaling protein (MAVS): S366A (protein)
parent chain: MPFAEDKTYKYICRNFSNFCNVDVVEILPYLPCLTARDQDRLRATCTLSGNRDTLWHLFNTLQRRPGWVEYFIAALRGCELVDLADEVASVYQSYQPRTSDRPPDPLEPPSLPAERPGPPTPAAAHSIPYNSCREKEPSYPMPVQETQAPESPGENSEQALQTLSPRAIPRNPDGGPLESSSDLAALSPLTSSGHQEQDTELGSTHTAGATSSLTPSRGPVSPSVSFQPLARSTPRASRLPGPTGSVVSTGTSFSSSSPGLASAGAAEGKQGAESDQAEPIICSSGAEAPANSLPSKVPTTLMPVNTVALKVPANPASVSTVPSKLPTSSKPPGAVPSNALTNPAPSKLPINSTRAGMVPSKVPTSMVLTKVSASTVPTDGSSRNEETPAAPTPAGATGGSSAWLDSSSENRGLGSELSKPGVLASQVDSPFSGCFEDLAISASTSLGMGPCHGPEENEYKSEGTFGIHVAENPSIQLLEGNPGPPADPDGGPRPQADRKFQEREVPCHRPSPGALWLQVAVTGVLVVTLLVVLYRRRLH
For B1, in data set [1], the oligomerisation result is given as “no change”.

B2: mitochondrial antiviral signaling protein (MAVS): Thiamet-G (protein)
parent chain: B1 parent chain
Take B2: the degradation_or_half_life entry in data set [2] was “no change”.
